Measurements from US9383360B2, “Compositions and methods relating to lyme disease” (The United States of America, as represented by the …, priority 2012, dated 2016).

Columns and labels:
Aggrecan = assay: BbHtrA proteolysis assay, aggrecan substrate; format: biochemical, bovine, human; details: SDS-PAGE
Experimental: (§1) For proteolysis assays described in Examples herein, purified protein substrates (200-600 nM) and proteases (100-150 nM) were diluted in assay buffer (50 mM HEPES, pH 7.4, 5 mM CaCl2) and incubated overnight at 37° C. Samples were boiled for 4 minutes to inactivate the proteases. Proteoglycans were deglycosylated by overnight incubation at 37° C. with 0.01 U chondroitinase ABC (Seikagaku). Reactions were stopped by the addition of SDS/PAGE sample buffer, boiled for 4 minutes, and electrophoresed on pre-cast Tris-glycine gels (BioRad). Reaction products were visualized by silver staining.
BbHtrA cleaved recombinant human aggrecan (G1-IGD-G2 domains) within the IGD (FIG. 4A). Cleavage of recombinant aggrecan generated three high molecular weight proteolytic fragments which migrated at ˜110 kd, ˜60 kd and ˜50 kd.
BbHtrA also degraded native, fully glycosylated aggrecan (FIG. 4B, lane 5). Again, this degradation required BbHtrA catalytic activity (FIG. 4B, lane 6). The BbHtrA-generated aggrecan fragments appear to be a doublet, unlike those generated by HtrA1.
(§2) Purified proteins were incubated with BbHtrA or BbHtrA^S226A as described herein. HtrA (also known as DegP) proteases belong to the family of serine proteases which contain a highly reactive serine residue in their active site. This serine (Ser210 in DegP) is part of the canonical His-Ser-Asp catalytic triad and mutation of the catalytic serine abolishes proteolytic activity (Skorko-Glonek et al., 1995). In BbHtrA, residues His119, Ser226 and Asp149 form the catalytic triad and mutation of serine 226 to alanine abolished proteolytic activity as expected (FIG. 5).
Reaction products were separated by SDS-PAGE and silver stained. Native collagen II and recombinant tenascin C were not degraded by BbHtrA indicating selectivity for proteoglycans, E-cadherin and fibronectin. FIG. 5 is an image of SDS-PAGE analysis showing that BbHtrA degrades aggrecan, neurocan, versican, brevican, biglycan, decorin, E-cadherin, and casein.

Casein = assay: BbHtrA proteolysis assay, casein substrate; format: biochemical, bovine; details: SDS-PAGE, FIG. 5
Experimental: as §1, §2
Reaction products were separated by SDS-PAGE and silver stained. Native collagen II and recombinant tenascin C were not degraded by BbHtrA indicating selectivity for proteoglycans, E-cadherin and fibronectin. […]

[1] = test system: chondrocyte aggregate cultures; assay: Chondrocyte cytokine induction assay (Proteome Profiler Cytokine Arrays); format: cell-based, human; details: for Cytokines released by chondrocytes in response: LPS, medium alone
Source text: Chondrocyte aggregate cultures are used which form an extensive extracellular matrix with components characteristic of articular cartilage including aggrecan and type II collagen as described in Welter, J. et al, BioTechniques, 2007, 42(6):732-737; and Solchaga, L. A. et al., Chondrogenic Differentiation of Bone Marrow-Derived Mesenchymal Stem Cells: Tips and Tricks, 2011, 698:253-278.
To form the chondrocyte aggregate cultures, lx10^6 human mesenchymal stem cells (passage one, Lonza, catalog #PT-2501) were plated in a T150 flask (Corning) and cultured in growth media: mesenchymal stem cell basal media (MSCBM, Lonza, #PT-3238), mesenchymal growth supplements (SingleQuots, Lonza, #PT-4105), and 5 ng/ml recombinant human […] (Shenandoah Biotechnology). When confluent, cells were trypsin-released (0.5% trypsin EDTA, Gibco), expanded to two T150 flasks and fed with growth media every three days. When confluent, cells were harvested, resuspended in fresh growth media containing 5% DMSO and aliquots of 1×10^6 cells were cryopreserved in liquid nitrogen.
Human mesenchymal stem cells were used to promote chondrogenesis and chondrocyte aggregate formation for use in these studies. Two vials of passage three cryopreserved cells were thawed, plated in growth media in two T150 flasks and then expanded to six T150 flasks as above. Cells were harvested (0.5% trypsin EDTA, Gibco), pooled, enumerated and induced to chondrogenic differentiation as follows. Cells were resuspended in defined chondrocyte differentiation media: high glucose DMEM (Gibco), 50 μg/ml ascorbic acid-2-phosphate (Sigma), 39.3 ng/ml dexamethasone (Sigma), […] L-proline (Sigma), ITS+Premix (BD Biosciences), 10 ng/ml transforming growth factor β-3 (Shenandoah Biotechnology) and 30 μg/ml gentamicin sulfate+15 ng/ml amphotericin-B (GA-1000, Lonza, #PT-4504E). High density aggregates were obtained by plating, on average, 3×10^5 cells per well in a conical bottom 96 well plate (Thermo Scientific), pelleting by centrifugation (5 minutes at 600 g), and incubation at 37° C. and 5% CO2. Pellets formed coherent spherical aggregates by day two of culture. After seven days, wide bore tips were used to transfer aggregates to V-bottom 96 well plates (Corning). Aggregates were maintained in differentiation media at 37° C. and 5% CO2 for 3-5 weeks and fed every two days until experimentation.
For chondrocyte cytokine induction assays, 24 hours prior to experimentation, dexamethasone containing media was removed, aggregates were rinsed with DPBS (Gibco) and dexamethasone-free differentiation media was added. For experimentation, aggregates were transferred to 24 well plates (24 aggregates per condition), spent media was removed and fresh warmed dexamethasone-free media containing samples was added. Aggregates were then incubated at 37° C. and 5% CO2 for two days.
Recombinant BbHtrA or BbHtrA^S226A was added to culture medium and incubated with chondrocyte aggregate cultures. BbHtrA and BbHtrA^S226A were purified using an E. coli system and was expected to contain endotoxin which would have a stimulatory effect on the chondrocytes. To control for endotoxin contamination (lipopolysaccharide, LPS), an endotoxin removal kit (Noragen) was used to remove the bulk of LPS from recombinant BbHtrAs. The relative toxicity of the amount remaining in the BbHtrA and BbHtrA^S226A samples was determined by a chromogenic Limulus Amoebocyte Lysate (LAL) method (Lonza, Walkersville, Md.). Prior to addition to aggregates, LPS (44 ng, 200 EU), BbHtrA^WT (20 μg, 27.9 EU LPS) and BbHtrA^S226A ([…], 1.99 EU LPS) were incubated in 1 mg/ml polymyxin B sulfate (Sigma) on ice for 30 min with occasional mixing. Warmed dexamethasone-free medium was then added to each test condition to a final volume of 1 ml. Control aggregates were maintained in untreated medium also containing polymyxin B sulfate. The final concentration for all test conditions was 60 μg/ml polymyxin B sulfate. […]

[2] = spent medium of chondrocyte aggregates after 48 hours, cytokine array, background subtracted

B1: BbHtrA: Recombinant wild type B. burgdorferi HtrA serine protease, mature protein amino acids 38-474, expressed in E. coli (SEQ ID NO:1, 9) (protein, listed as Borrelia burgdorferi)
chain: EEKDNTVRALQDSFREVSKKILPSSVEVHATGVIKQSFPIPFFFFDMPEFDSERKSNWAGSGVIIGRDSQKKSLFYVVTNSHVVDKATELEVVSYDKKKHKAKLIGKDEKKDIALISFESDDATIKVADLGDSDKLEIGDWVMAVGSPFQFSFTVTAGIVSGLQRSANPNLQSRNLFIQTDAAINRGNSGGPLVNIKGEVIGINAWIASNSGGNIGLGFAIPVNNIKSTVDFFLKGKKIESAWLGISFYPLKTRDSEVLKSLGVESNDVSAAIIASLYPGSPAVKSGLRAGDIIMKVNGVSMSVFQDVTSYISDFYAGEKVNVEILRGNVKKNIEIVLAVRPKDKELSSSKMLPGFVVYPLVEDIKAQLNLRNWIKGVVVDYIDKNLASNIKMKSGDVILSVNSKSVSNLREFYDALEVGKNTYKILRGNDSFKITF
Degradation of aggrecan (Aggrecan; FIG. 5): degrades | Cleavage of recombinant human aggrecan (G1-IGD-G2 domains) within the IGD (Aggrecan; silver stain, FIG. 4A): cleaved | Degradation of casein (Casein): degrades | Cytokines released by chondrocytes in response ([1]; additional experiments, FIG. 10: BbHtrA^WT, BbHtrA^S226A): CCL5, CCL2, CXCL1, CCL1, sICAM-1, IL-6 and IL-8 | Cytokines released by chondrocytes in response ([1]; initial experiments, FIG. 9A: BbHtrA, heat denatured BbHtrA): CXCL1, CCL1, sICAM-1, IL-6, IL-8 and CCL2 | GROα/CXCL1 pixel density, Mean [1, 2]: 1.349 | I-309/CCL1 pixel density, Mean [1, 2]: 0.535 | IL-6 pixel density, Mean [1, 2]: 0.627 | IL-8 pixel density, Mean [1, 2]: 1.581 | MCP-1/CCL2 pixel density, Mean [1, 2]: 0.452 | RANTES/CCL5 pixel density, Mean [1, 2]: 0.736 | sICAM-1/CD54 pixel density, Mean [1, 2]: 0.890
